# Assay results from PMC5650531.
# Target: His6-CCCP-1 (C. elegans CCCP-1, full length) (C. elegans)
# Assay: SEC-MALS
substance,measurement,value
"His6-CCCP-1 (C. elegans CCCP-1, full length) (natural protein)",stoichiometry N,2
